Experimental data reported in paper PMC6314544.

How the values were obtained:
hLC3-KCK-his6 (human) [1] = biological target: hLC3-KCK-his6 (human) (UniProt Q9GZQ8); assay: FRET or BRET; various concentrations of Alexa Fluor 546-labeled NT JMY added to 200 nM Alexa Fluor 647-labeled LC3; 100 mM KCl, 20 mM Hepes pH 7.4
hLC3-KCK-his6 (human) [2] = biological target: hLC3-KCK-his6 (human) (UniProt Q9GZQ8); assay: AUC; sedimentation equilibrium of purified LC3 in solution; dimer to monomers

Row | Kd (hLC3-KCK-his6 (human) [1]) | Kd (hLC3-KCK-his6 (human) [2]) | Substance
1 | 55 nM |  | SNAP-JMY (1-314), N-terminal region of JMY (from UniProt Q8N9B5 1-314) (domain or fragment)
2 |  | > 700000 nM | hLC3-KCK-his6 (from UniProt Q9GZQ8 1-120) (natural protein)
